Paper PMC3040777, “Purification and Characterization of the RecA Protein from Neisseria gonorrhoeae”

How the values were obtained:
SSBNg = target: T1, SSBNg (Neisseria gonorrhoeae, UniProt Q5F7Y0 1-174); assay: EMSA; 50 uM nucleotides ssDNA; SSB 10 nM-10 uM; fully bound at 1/10 SSB; affinity similar to SSBEc; EMSA: 20 mM Tris-Cl 39% cation (pH 8.3), 0.5 M NaCl, 1 mM EDTA, 50% glycerol, 10 min at 37 C; 4% native PAGE at 4 C; conditions: protein: recombinant; tags: none stated (pET21a, native purification); chain copies: 4; label: 5'-6FAM; single strand
T1 sequence: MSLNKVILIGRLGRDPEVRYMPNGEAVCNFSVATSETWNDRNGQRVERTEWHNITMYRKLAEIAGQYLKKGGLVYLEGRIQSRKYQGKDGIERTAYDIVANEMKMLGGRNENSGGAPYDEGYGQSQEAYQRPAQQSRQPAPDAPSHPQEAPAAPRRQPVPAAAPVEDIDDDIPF

SSBEc = SSBEc (Escherichia coli, UniProt P0AGE0 1-178); assay: EMSA; 50 uM nucleotides ssDNA; SSB 10 nM-10 uM; fully bound at 1/10 SSB; affinity similar to SSBNg; EMSA: 20 mM Tris-Cl 39% cation (pH 8.3), 0.5 M NaCl, 1 mM EDTA, 50% glycerol, 10 min at 37 C; 4% native PAGE at 4 C; conditions: protein: recombinant; chain copies: 4; label: 5'-6FAM; single strand
SSBEc, sequence (P0AGE0 whole entry): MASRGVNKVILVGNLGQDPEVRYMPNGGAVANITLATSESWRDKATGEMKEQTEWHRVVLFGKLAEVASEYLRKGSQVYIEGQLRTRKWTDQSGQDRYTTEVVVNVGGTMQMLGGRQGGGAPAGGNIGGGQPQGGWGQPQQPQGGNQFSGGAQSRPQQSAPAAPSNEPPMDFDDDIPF

TGCCTCGCGGTAGCTCTTCTCGGAGCGCACGATTCGCACTGCTGATGTTC (ssDNA) [OCN324 50-mer]
binding result (SSBNg): binds | binding result (SSBEc): binds
